Assay results reported in US20250230210A1 (PARTNER THERAPEUTICS, published 2025).

Legend:
[1] = target: T1, human serum albumin (human, UniProt P02768 25-609); test: BLI, VHH-Fc on sensor, human albumin in solution, pH 5.5, 30 C, 1:1 model
T1 construct: also called HSA; Human Albumin
Experimental: (§1) To assess binding to albumin, the VHH were cloned onto a human IgG1 Fc and hinge for ease of purification and analysis. […] The VH-Fc constructs were loaded onto AHC sensors prior to exposure to the monomeric targets human, mouse or rhesus albumin in solution for association and then dissociation in buffer solution (Table 5 and FIGS. 5A-C).
(§2) To determine the dissociation constant, the binding reaction and dissociation were performed at the described pH. Data acquisition was performed at 30° C.
(§3) Data (time and response units) was analyzed using the ForteBio Data Analysis Software. The data was fit to a 1:1 binding model to calculate an association (Kon) and dissociation rate (Koff), and KD was calculated using the ratio kd/ka.

[2] = target: T2, Rhesus albumin (rhesus monkey, UniProt Q28522 17-600); test: BLI, Octet 384, VHH-Fc on AHC sensor, albumin in solution
T2 construct: also called rhesus monkey albumin
Experimental: (§4) To assess binding, the VHH were cloned onto a human IgG1 Fc and hinge for ease of purification and analysis. […] The VHH-Fc constructs were loaded onto AHC sensors prior to exposure to the monomeric targets, human, mouse or rhesus albumin in solution to determine association and dissociation. In the case of the pH assessment, the binding reaction and dissociation buffer were at the described pH. Data acquisition was performed at 30° C.
as §1

[3] = target: T1, human serum albumin; test: as above
Experimental: as §4, §1

[4] = target: T3, Mouse Albumin (mouse, UniProt P07724 25-608); test: as above
T3 construct: also called murine albumin
Experimental: as §4, §1

[5] = target: T1, human serum albumin; test: BLI, VHH-Fc on sensor, human albumin in solution, pH 7.0, 30 C, 1:1 model
Experimental: as §1, §2, §3

[6] = target: T1, human serum albumin; test: BLI, Octet 384, VHH-Fc on AHC sensor, albumin in solution; VHH-Fc on AHC sensor, monomeric human albumin in solution; pH of Table 5 not stated
[7] = target: T1, human serum albumin; test: BLI, VHH-Fc on sensor, human albumin in solution, pH 6.5, 30 C, 1:1 model
Experimental: as §1, §2, §3

[8] = target: T1, human serum albumin; test: BLI, VHH-Fc on sensor, human albumin in solution, pH 6.0, 30 C, 1:1 model
Experimental: as §1, §2, §3

Kd [1]: 12.3 nM | Kd [2]: 66.2 nM | Response [2]: 0.34 | Response [3]: 0.178 | Kd [4]: 10.4 nM | Response [4]: 0.507 | Kd [5]: 6.63 nM | Kd [6]: 159 nM | Kd [7]: 8.2 nM | Kd [8]: 3.81 nM
B1: VHH-Fc construct (anti-albumin VHH cloned onto a human IgG1 Fc and hinge) (Fc fusion)
chain: EVQLLESGGGLVQPGGSLRLSCAASGETLDYYAIGWFRQAPGKEREGVSCIASSGGSTNYADSVKGRFTISRDNSKNTVYLQMNSLKPEDTAVYYCAAAVLECRTVVRGYDYWGQGTQVTVSS
notes: also called VH-Fc constructs; not shown: human IgG1 hinge and Fc
